Results: patent US20230365648A1 (BITTERROOT BIO, published 2023)
Changes are numbered by the printed parent chain.

Columns and labels:
Assay in all cases: BLI (Octet R8), construct captured on anti-human Fc sensor, CD47 in solution
rhCD47-his (human CD47) = molecular target: T1, rhCD47-his (human CD47) (human, UniProt Q08722 19-139)
T1 construct: Soluble analyte in the Octet assay; not shown: his tag

mouse CD47 = molecular target: T2, mouse CD47 (mouse, UniProt Q61735 19-140, limits assumed)
T2 construct: also called mouse CD47 protein
T2 sequence (looked up): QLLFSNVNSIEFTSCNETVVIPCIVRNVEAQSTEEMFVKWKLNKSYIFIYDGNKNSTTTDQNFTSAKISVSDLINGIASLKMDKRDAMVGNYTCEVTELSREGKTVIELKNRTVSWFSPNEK

rat CD47 = molecular target: T3, rat CD47 (rat, UniProt P97829 19-140, limits assumed)
T3 construct: also called rat CD47 protein
T3 sequence (looked up): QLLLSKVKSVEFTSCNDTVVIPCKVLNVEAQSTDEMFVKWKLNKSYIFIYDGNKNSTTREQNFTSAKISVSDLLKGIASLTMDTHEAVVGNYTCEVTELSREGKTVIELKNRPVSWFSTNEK

Measured: binding result

T1 sequence (Q08722 19-139 limits assumed): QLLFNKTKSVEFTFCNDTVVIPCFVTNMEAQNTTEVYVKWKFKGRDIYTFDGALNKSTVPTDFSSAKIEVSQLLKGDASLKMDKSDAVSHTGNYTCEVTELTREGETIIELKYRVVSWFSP

B1: Construct 50 (SIRPα fusion polypeptide SEQ ID NO: 10 construct without the YTE mutation, i.e. with the wild type IgG4 Fc domain) (Fc fusion)
chain: EEELQIIQPDKSVLVAAGETATLRCTITSLFPVGPIQWFRGAGPGRVLIYNQRQGPFPRVTTVSDTTKRNNMDFSIRIGNITPADAGTYYCIKFRKGSPDDVEFKSGAGTELSVRAKPSAAAPPCPPCPAPEFLGGPSVFLFPPKPKDTLMISRTPEVTCVVVDVSQEDPEVQFNWYVDGVEVHNAKTKPREEQFNSTYRVVSVLTVLHQDWLNGKEYKCKVSNKGLPSSIEKTISKAKGQPREPQVYTLPPSQEEMTKNQVSLTCLVKGFYPSDIAVEWESNGQPENNYKTTPPVLDSDGSFFLYSRLTVDKSRWQEGNVFSCSVMHEALHNHYTQKSLSLSLGK
notes: It is described as the same construct as Construct 67 without the YTE mutation
binds: all assays above

B2: Construct 67 (SIRPα fusion polypeptide of SEQ ID NO: 10, SIRPα domain of SEQ ID NO: 2 and IgG4 Fc domain with a YTE mutation) (Fc fusion)
chain: B1 chain with M151Y, S153T, T155E
binds: all assays above
